Biological target: T1, RelA (p65) (endogenous, BV-2 microglial cells) (mouse (endogenous in BV-2), UniProt Q04207 1-549)
T1 construct: NF-kappa B family member RelA (p65), endogenous in the murine microglial cell line BV-2; source: endogenous, BV-2 whole cell lysate
Test: co-IP; whole cell lysates of BV-2 cells, untreated or treated with Tat (100nM) for 4h or 8h; immunoprecipitation with a RelA-specific antibody and Protein A/G+ agarose beads, 4°C, washed with ELB lysis buffer; immunoblot with RelB-specific antibody; densitometry normalised to precipitated RelA
Conditions: partners not purified

T1 sequence (Q04207 whole entry): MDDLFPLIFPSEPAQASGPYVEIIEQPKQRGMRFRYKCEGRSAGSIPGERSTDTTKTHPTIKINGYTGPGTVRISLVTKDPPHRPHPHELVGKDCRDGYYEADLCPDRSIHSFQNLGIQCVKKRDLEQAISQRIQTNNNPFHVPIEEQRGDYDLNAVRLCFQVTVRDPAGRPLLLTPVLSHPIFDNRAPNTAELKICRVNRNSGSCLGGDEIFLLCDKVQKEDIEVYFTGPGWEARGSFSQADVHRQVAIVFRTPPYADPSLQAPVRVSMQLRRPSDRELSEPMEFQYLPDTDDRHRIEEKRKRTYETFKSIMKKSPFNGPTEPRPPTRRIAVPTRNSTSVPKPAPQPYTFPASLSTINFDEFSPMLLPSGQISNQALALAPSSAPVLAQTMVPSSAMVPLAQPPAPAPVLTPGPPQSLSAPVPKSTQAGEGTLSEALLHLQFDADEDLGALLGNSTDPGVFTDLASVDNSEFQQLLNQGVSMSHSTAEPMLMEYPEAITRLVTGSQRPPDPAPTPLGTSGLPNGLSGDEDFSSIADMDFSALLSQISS

B1: RelB (endogenous, BV-2 microglial cells) (natural protein, mouse (endogenous in BV-2), UniProt Q04863 1-558, looked up)
chain: MPSRRAARESAPELGALGSSDLSSLSLTVSRTTDELEIIDEYIKENGFGLDGTQLSEMPRLVPRGPASLSSVTLGPAAPPPPATPSWSCTLGRLVSPGPCPRPYLVITEQPKQRGMRFRYECEGRSAGSILGESSTEASKTLPAIELRDCGGLREVEVTACLVWKDWPHRVHPHSLVGKDCTDGVCRVRLRPHVSPRHSFNNLGIQCVRKKEIEAAIERKIQLGIDPYNAGSLKNHQEVDMNVVRICFQASYRDQQGHLHRMDPILSEPVYDKKSTNTSELRICRINKESGPCTGGEELYLLCDKVQKEDISVVFSTASWEGRADFSQADVHRQIAIVFKTPPYEDLEISEPVTVNVFLQRLTDGVCSEPLPFTYLPRDHDSYGVDKKRKRGLPDVLGELSSSDPHGIESKRRKKKPVFLDHFLPGHSSGLFLPPSALQPADSDFFPASISLPGLEPPGGPDLLDDGFAYDPSAPTLFTMLDLLPPAPPLASAVVGSGGAGATVVESSGPEPLSLDSFAAPGPGDVGTASLVGSNMFPNQYREAAFGGGLLSPGPEAT
notes: NF-kappa B family member RelB, endogenous in the murine microglial cell line BV-2; source: endogenous, BV-2 whole cell lysate
- fold increase of co-precipitated RelB (normalised to precipitated RelA) with Tat against untreated cells: 4 fold
